In patent publication US20220242962A1 (APTEVO RESEARCH AND DEVELOPMENT, published 2022):
Read-outs that look alike come from different tables or passages of the source.

T1: Full-length Cyno 4-1BB (cynomolgus monkey, UniProt Q07011 24-255 (human entry))
T1 construct: on Jurkat or CHO cells; also called FOB006; cynomolgus 4-1BB
T1 chain: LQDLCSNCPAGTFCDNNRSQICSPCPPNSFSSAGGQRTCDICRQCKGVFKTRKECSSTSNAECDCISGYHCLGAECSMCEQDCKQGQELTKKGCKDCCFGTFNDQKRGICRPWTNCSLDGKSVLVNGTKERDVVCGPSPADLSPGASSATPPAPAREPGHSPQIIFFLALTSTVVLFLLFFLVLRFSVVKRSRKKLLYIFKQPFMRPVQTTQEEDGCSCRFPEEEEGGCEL

T2: Full-length Cyno OX40 (cynomolgus monkey, UniProt P43489 29-277 (human entry))
T2 construct: on CHO-K1SV cells; also called OXF004; cynomolgus OX40
T2 chain: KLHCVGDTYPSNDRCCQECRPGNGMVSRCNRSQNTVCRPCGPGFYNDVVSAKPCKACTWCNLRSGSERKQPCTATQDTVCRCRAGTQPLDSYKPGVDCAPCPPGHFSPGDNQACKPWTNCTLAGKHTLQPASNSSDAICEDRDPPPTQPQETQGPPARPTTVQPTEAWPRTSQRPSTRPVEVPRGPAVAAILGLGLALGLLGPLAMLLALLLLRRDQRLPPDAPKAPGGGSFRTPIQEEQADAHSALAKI

T3: Fc gamma receptor RIIA R167 (human, UniProt P12318 36-218)
T3 construct: soluble SPR analyte
T3 sequence (looked up): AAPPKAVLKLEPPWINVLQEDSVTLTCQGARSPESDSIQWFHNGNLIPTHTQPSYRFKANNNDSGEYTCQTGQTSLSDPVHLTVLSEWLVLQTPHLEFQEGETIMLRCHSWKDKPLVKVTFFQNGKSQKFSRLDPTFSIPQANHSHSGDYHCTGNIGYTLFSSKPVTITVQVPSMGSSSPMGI

T4: Fc gamma receptor RIIA H167 (human, UniProt P12318 36-218)
T4 construct: soluble SPR analyte
T4 sequence (looked up): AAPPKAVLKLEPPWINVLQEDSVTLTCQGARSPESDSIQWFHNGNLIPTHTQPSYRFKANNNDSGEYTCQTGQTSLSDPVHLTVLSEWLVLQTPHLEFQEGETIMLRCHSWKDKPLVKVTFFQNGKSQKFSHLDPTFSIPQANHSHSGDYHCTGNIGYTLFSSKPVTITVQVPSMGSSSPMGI

T5: Full-length Human OX40 (human, UniProt P43489 29-277)
T5 construct: also called OXF001; human OX40/CHO
T5 sequence: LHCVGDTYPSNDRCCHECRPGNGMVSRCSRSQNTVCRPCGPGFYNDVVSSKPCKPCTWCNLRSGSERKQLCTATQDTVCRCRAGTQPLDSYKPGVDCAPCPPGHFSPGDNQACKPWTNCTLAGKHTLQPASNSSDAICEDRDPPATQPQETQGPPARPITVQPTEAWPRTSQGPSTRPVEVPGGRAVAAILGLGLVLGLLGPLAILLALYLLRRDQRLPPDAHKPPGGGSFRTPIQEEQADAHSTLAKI


What was measured:
Full-length Cyno 4-1BB [1] = target: T1, Full-length Cyno 4-1BB; test: flow cytometry on Jurkat cells transfected with cynomolgus 4-1BB, goat anti-human Fc secondary antibody, MFI (Mean)
Experimental: (§1) FIGS. 12A-12D show the binding of anti-4-1BB x anti-OX40 constructs, with additional humanization in 4-1BB and altered orientations of binding domains, human (12A) or cynomolgus (12C) 4-1BB-expressing Jurkat cells or human (12B) or cynomolgus (12D) OX40-expressing CHOK1SV cells. Serial dilutions of ADAPTIR™ constructs were incubated with transfected cells and subsequently labelled with a fluorescently-conjugated goat-a-human Fc secondary antibody. […] (See Example 19.)
(§2) Binding studies were performed using the flow cytometry-based staining procedures described above.

Full-length Human 4-1BB = target: T6, Full-length Human 4-1BB (human, UniProt Q07011 24-255); test: flow cytometry, Jurkat cells expressing human 4-1BB
T6 construct: also called FOB005; CD137
Experimental: as §1, §2

Full-length Cyno OX40 = target: T2, Full-length Cyno OX40; test: flow cytometry on CHOK1SV cells transfected with cynomolgus OX40, goat anti-human Fc secondary antibody, MFI (Mean)
Experimental: (§3) Serial dilutions of ADAPTIR™ constructs were incubated with transfected target cells and subsequently labelled with a fluorescently-conjugated goat-a-human Fc secondary antibody. […] (See Example 25.)

[2] = target: T3, Fc gamma receptor RIIA R167; test: SPR, construct immobilized, receptor injected at 2 uM
Experimental: (§4) Fcγ receptor binding to bispecific proteins was measured by Surface Plasmon Resonance on a Biacore 8K instrument at room temperature. Bispecific proteins with modified Fc regions to reduce binding to Fcγ receptors were directly immobilized on the surface of a CM5 sensor chip to a surface density of 4000 RU. A bispecific ADAPTIR™ protein with a wild type Fc was similarly immobilized to the surface as a positive control and used as a comparator to evaluate the reduction in binding resulting from changes incorporated into the Fc region amino acid sequence. Fcγ receptors (purchased from R&D Systems) were diluted to either 100 nM (FcγRI) or 2 μM (all other Fcγ receptors) in HBS-EP+ buffer before injecting over the surface of the prepared sensor chip at 30 μL/min for 60 seconds. Maximum RU values during association phase of each injection were used to compare the extent of binding of the modified Fc to wild type value and are reported in Table 17 below.

[3] = target: T4, Fc gamma receptor RIIA H167; test: as above
Experimental: as §4

Full-length Human OX40 = target: T5, Full-length Human OX40; test: flow cytometry, CHO cells expressing human OX40
Experimental: as §1, §2

Full-length Cyno 4-1BB [4] = target: T1, Full-length Cyno 4-1BB; test: flow cytometry on Jurkat cells transfected with cynomolgus 4-1BB, goat anti-human Fc secondary antibody, MFI (Mean)
Experimental: as §3

Fc gamma receptor RI = target: T7, Fc gamma receptor RI (human, UniProt P12314 16-288); test: SPR, construct immobilized, receptor injected at 100 nM
T7 construct: also called FcγRI
Experimental: as §4

T7 sequence (P12314 16-288 limits assumed): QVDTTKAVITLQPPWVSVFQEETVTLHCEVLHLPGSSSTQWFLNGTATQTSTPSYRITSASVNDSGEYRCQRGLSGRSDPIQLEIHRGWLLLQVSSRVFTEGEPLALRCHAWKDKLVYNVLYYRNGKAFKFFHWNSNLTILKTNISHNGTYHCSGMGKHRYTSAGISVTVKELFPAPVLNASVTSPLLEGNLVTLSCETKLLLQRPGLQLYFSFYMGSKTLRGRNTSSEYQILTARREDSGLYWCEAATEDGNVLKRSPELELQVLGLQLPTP

Row | Binder | EC50 (read off the curve) (Full-length Cyno 4-1BB [1]) | EC50 (Full-length Human 4-1BB) | max MFI (Full-length Human 4-1BB) | EC50 (read off the curve) (Full-length Cyno OX40) | Max RU value during association [2] | Max RU value during association [3] | EC50 (Full-length Human OX40) | max MFI (Full-length Human OX40) | EC50 (read off the curve) (Full-length Cyno 4-1BB [4]) | Max RU value during association (Fc gamma receptor RI)
1 | FXX01102 (bispecific antibody, ADAPTIR anti-4-1BB (HL) x anti-OX40 with Q17K and T86R; PAA (del) Fc; also called FX01102) EVQLVQSGAEVKKPGASVKVSCKASGYTFTSYWMNWVRQAPGQGLEWMGNIYPSGGSTNYAQKFQGRVTMTVDTSTSTVYMELSSLRSEDTAVYYCASFSDGYYAYAMDYWGQGTLVTVSSGGGGSGGGGSGGGGSGGGGSEIVMTQSPATLSLSPGERATLSCRASQSVSSYLNWYQQKPGQAPRLLIYYASRRHTGIPARFSGSGSGTDFTLTISSLQPEDFAVYYCQQGYNLPYTFGQGTKVEIKEPKSSDKTHTCPPCPAPPAAAPSVFLFPPKPKDTLMISRTPEVTCVVVDVSHEDPEVKFNWYVDGVEVHNAKTKPREEQYNSTYRVVSVLTVLHQDWLNGKEYKCAVSNKALPAPIEKTISKAKGQPREPQVYTLPPSRDELTKNQVSLTCLVKGFYPSDIAVEWESNGQPENNYKTTPPVLDSDGSFFLYSKLTVDKSRWQQGNVFSCSVMHEALHNHYTQKSLSLSPGGGGSPSSYVLTQPPSVSVAPGKTARITCGGNNIGSKSVNWFQQKPGQAPVLVVYDDSGRPSGIPERFSGSTSGNTATLTISRVEAGDEADYYCQVWDSSSDHVVFGGGTKLTVLGGGGSGGGGSGGGGSGGGGSQVQLVESGGGVVQPGRSLRLSCAASGFTLSYYGMHWVRQAPGKGLEWVAAISHDGSDKYYADSVKGRFTISRDNSKNRLYLQMNSLRAEDTAVYYCSNDQFDPWGQGTLVTVSSR | ~0.3 nM | 0.18 nM | 4850 MFI | 1 to 2 nM | 88 RU | 13 RU | 0.34 nM | 10500 MFI | ~0.3 nM | –
2 | FXX01115 (bispecific antibody, ADAPTIR anti-4-1BB x anti-OX40, pI variant; PAA (del) Fc) EVQLVQSGAEVKKPGASVKVSCKASGYTFTSYWMNWVRQAPGQGLEWMGNIYPSGGSTNYAQKFQGRVTMTVDTSTSTVYMELSSLRSEDTAVYYCASFSDGYYAYAMDYWGQGTLVTVSSGGGGSGGGGSGGGGSGGGGSEIVMTQSPATLSLSPGERATLSCRASQSVSSYLNWYQQKPGQAPRLLIYYASRRHTGIPARFSGSGSGTDFTLTISSLQPEDFAVYYCQQGYNLPYTFGQGTKVEIKEPKSSDKTHTCPPCPAPPAAAPSVFLFPPKPKDTLMISRTPEVTCVVVDVSHEDPEVKFNWYVDGVEVHNAKTKPREEQYNSTYRVVSVLTVLHQDWLNGKEYKCAVSNKALPAPIEKTISKAKGQPREPQVYTLPPSRDELTKNQVSLTCLVKGFYPSDIAVEWESNGQPENNYKTTPPVLDSDGSFFLYSKLTVDKSRWQQGNVFSCSVMHEALHNHYTQKSLSLSPGGGGSPSSYVLTQPPSVSVAPGQTARITCGGNNIGSKSVNWFQQKPGQAPVLVVYDDSGRPSGVPNRFSGSTSGNTATLTISRVEAGDEADYYCQVWDSSSDHVVFGGGTKLTVLGGGGSGGGGSGGGGSGGGGSQVQLVESGGGVVQPGRSLRLSCAASGFTLSYYGMHWVRQAPGKGLEWVAAISHDGSDKYYADSVKGRFTISRDNSKNRLYLQMNSLRAEDTAVYYCSNDQFDPWGQGTLVTVSSR | – | – | – | 1 to 2 nM | 89 RU | 12 RU | – | – | ~0.3 nM | –
3 | FXX01111 (bispecific antibody, ADAPTIR anti-4-1BB x anti-OX40, pI variant; PAA (del) Fc) EVQLVQSGAEVKKPGASVKVSCKASGYTFTSYWMNWVRQAPGQGLEWMGNIYPSGGSTNYAQKFQGRVTMTVDTSTSTVYMELSSLRSEDTAVYYCASFSDGYYAYAMDYWGQGTLVTVSSGGGGSGGGGSGGGGSGGGGSEIVMTQSPATLSLSPGERATLSCRASQSVSSYLNWYQQKPGQAPRLLIYYASRRHTGIPARFSGSGSGTDFTLTISSLQPEDFAVYYCQQGYNLPYTFGQGTKVEIKEPKSSDKTHTCPPCPAPPAAAPSVFLFPPKPKDTLMISRTPEVTCVVVDVSHEDPEVKFNWYVDGVEVHNAKTKPREEQYNSTYRVVSVLTVLHQDWLNGKEYKCAVSNKALPAPIEKTISKAKGQPREPQVYTLPPSRDELTKNQVSLTCLVKGFYPSDIAVEWESNGQPENNYKTTPPVLDSDGSFFLYSKLTVDKSRWQQGNVFSCSVMHEALHNHYTQKSLSLSPGGGGSPSSYVLTQPPSVSVAPGQTARITCGGNNIGSKSVNWFQQKPGQAPVLVVYDDSGRPSGVPNRFSGSTSGNTATLTISRVEAGDEADYYCQVWDSSSDHVVFGGGTKLTVLGGGGSGGGGSGGGGSGGGGSQVQLVESGGGVVQPGRSLRLSCAASGFTLSYYGMHWVRQAPGKGLEWVAAISHDGSDKYYADSVKGRFTISRDNSKNTLYLQMNSLRAEDTAVYYCSNDQFDPWGQGTLVTVSSR | – | – | – | 1 to 2 nM | 86 RU | 13 RU | – | – | ~0.3 nM | 0 RU
4 | FXX01119 (bispecific antibody, ADAPTIR anti-4-1BB x anti-OX40, pI variant; PAA (del) Fc) EVQLVQSGAEVKKPGASVKVSCKASGYTFTSYWMNWVRQAPGQGLEWMGNIYPSGGSTNYAQKFQGRVTMTVDTSTSTVYMELSSLRSEDTAVYYCASFSDGYYAYAMDYWGQGTLVTVSSGGGGSGGGGSGGGGSGGGGSEIVMTQSPATLSLSPGERATLSCRASQSVSSYLNWYQQKPGQAPRLLIYYASRRHTGIPARFSGSGSGTDFTLTISSLQPEDFAVYYCQQGYNLPYTFGQGTKVEIKEPKSSDKTHTCPPCPAPPAAAPSVFLFPPKPKDTLMISRTPEVTCVVVDVSHEDPEVKFNWYVDGVEVHNAKTKPREEQYNSTYRVVSVLTVLHQDWLNGKEYKCAVSNKALPAPIEKTISKAKGQPREPQVYTLPPSRDELTKNQVSLTCLVKGFYPSDIAVEWESNGQPENNYKTTPPVLDSDGSFFLYSKLTVDKSRWQQGNVFSCSVMHEALHNHYTQKSLSLSPGGGGSPSSYVLTQPPSVSVAPGKTARITCGGNNIGSKSVNWFQQKPGQAPVLVVYDDSGRPSGVPNRFSGSTSGNTATLTISRVEAGDEADYYCQVWDSSSDHVVFGGGTKLTVLGGGGSGGGGSGGGGSGGGGSQVQLVESGGGVVQPGRSLRLSCAASGFTLSYYGMHWVRQAPGKGLEWVAAISHDGSDKYYADSVKGRFTISRDNSKNRLYLQMNSLRAEDTAVYYCSNDQFDPWGQGTLVTVSSR | – | – | – | 1 to 2 nM | 103 RU | 14 RU | – | – | ~0.3 nM | –
